PMC7869511, “Computer-aided design of PVR mutants with enhanced binding affinity to TIGIT” (Cell Communication and Signaling : CCS, 2021)

B1: Fc-fused protein of human TIGIT [human] / wild type human PVR, full length, on CHO-K1 cells [human] (parent complex)
chain 1: MMTGTIETTGNISAEKGGSIILQCHLSSTTAQVTQVNWEQQDQLLAICNADLGWHISPSFKDRVAPGPGLGLTLQSLTVNDTGEYFCIYHTYPDGTYTGRIFLEVLESSVAEHGARFQIP
chain 2: WPPPGTGDVVVQAPTQVPGFLGDSVTLPCYLQVPNMEVTHVSQLTWARHGESGSMAVFHQTQGPSYSESKRLEFVAARLGAELRNASLRMFGLRVEDEGNYTCLFVTFPQGSRSVDIWLRVLAKPQNTAEVQKVQLTGEPVPMARCVSTGGRPPAQITWHSDLGGMPNTSQVPGFLSGTVTVTSLWILVPSSQVDGKNVTCKVEHESFEKPQLLTVNLTVYYPPEVSISGYDNNWYLGQNEATLTCDARSNPEPTGYNWSTTMGPLPPFAVAQGAQLLIRPVDKPINTTLICNVTNALGARQAELTVQVKEGPPSEHSGISRNAIIFLVLGILVFLILLGIGIYFYWSKCSREVLWHCHLCPSSTEHASASANGHVSYSAVSRENSSSQDPQTEGTR

Variants of: B1
Assay: flow cytometry on cells; 120 nM hTIGIT-Fc; CHOK1 cells overexpressing hPVR; parent: 1; read off a plot

Row | Variant | ratio to parent
1 | chain 2 WPPPGTGDVVVQAPTQVPGFLGDSVTLPCYLQVPNMEVTHVSQLTWARHGESGSMAVFHQTQGPSYSESKRLEFVAARLGAELRNASLRMFGLRVEDEGNYTCLFVTFPQVSRSVDIWLRVLAKPQNTAEVQKVQLTGEPVPMARCVSTGGRPPAQITWHSDLGGMPNTSQVPGFLSGTVTVTSLWILVPSSQVDGKNVTCKVEHESFEKPQLLTVNLTVYYPPEVSISGYDNNWYLGQNEATLTCDARSNPEPTGYNWSTTMGPLPPFAVAQGAQLLIRPVDKPINTTLICNVTNALGARQAELTVQVKEGPPSEHSGISRNAIIFLVLGILVFLILLGIGIYFYWSKCSREVLWHCHLCPSSTEHASASANGHVSYSAVSRENSSSQDPQTEGTR [chain 2 G111V] | ~1.6
2 | chain 2 WPPPGTGDVVVQAPTQVPGFLGDSVTLPCYLQVPNMEVTHVSQLTWARHGESGSMAVFHQTQGPSYSESKRLEFVAARLGAELRNASLRMFGLRVEDEGNYTCLFVTFPQMSRSVDIWLRVLAKPQNTAEVQKVQLTGEPVPMARCVSTGGRPPAQITWHSDLGGMPNTSQVPGFLSGTVTVTSLWILVPSSQVDGKNVTCKVEHESFEKPQLLTVNLTVYYPPEVSISGYDNNWYLGQNEATLTCDARSNPEPTGYNWSTTMGPLPPFAVAQGAQLLIRPVDKPINTTLICNVTNALGARQAELTVQVKEGPPSEHSGISRNAIIFLVLGILVFLILLGIGIYFYWSKCSREVLWHCHLCPSSTEHASASANGHVSYSAVSRENSSSQDPQTEGTR [chain 2 G111M] | ~0.93
3 | chain 2 WPPPGTGDVVVQAPTQVPGFLGDSVTLPCYLQVPNMEVTHVSQLTWARHGESGSMAVFHQTQGPSYSESKRLEFVAARLGAELRNASLRMFGLRVEDEGNYTCLFVTFPQWSRSVDIWLRVLAKPQNTAEVQKVQLTGEPVPMARCVSTGGRPPAQITWHSDLGGMPNTSQVPGFLSGTVTVTSLWILVPSSQVDGKNVTCKVEHESFEKPQLLTVNLTVYYPPEVSISGYDNNWYLGQNEATLTCDARSNPEPTGYNWSTTMGPLPPFAVAQGAQLLIRPVDKPINTTLICNVTNALGARQAELTVQVKEGPPSEHSGISRNAIIFLVLGILVFLILLGIGIYFYWSKCSREVLWHCHLCPSSTEHASASANGHVSYSAVSRENSSSQDPQTEGTR [chain 2 G111W] | ~0.55
4 | chain 2 WPPPGTGDVVVQAPTQVPGFLGDSVTLPCYLQVPNMEVTHVSQLTWARHGESGWMAVFHQTQGPSYSESKRLEFVAARLGAELRNASLRMFGLRVEDEGNYTCLFVTFPQGSRSVDIWLRVLAKPQNTAEVQKVQLTGEPVPMARCVSTGGRPPAQITWHSDLGGMPNTSQVPGFLSGTVTVTSLWILVPSSQVDGKNVTCKVEHESFEKPQLLTVNLTVYYPPEVSISGYDNNWYLGQNEATLTCDARSNPEPTGYNWSTTMGPLPPFAVAQGAQLLIRPVDKPINTTLICNVTNALGARQAELTVQVKEGPPSEHSGISRNAIIFLVLGILVFLILLGIGIYFYWSKCSREVLWHCHLCPSSTEHASASANGHVSYSAVSRENSSSQDPQTEGTR [chain 2 S54W] | ~1.2
5 | chain 2 WPPPGTGDVVVQAPTQVPGFLGDSVTLPCYLQVPNMEVTHVSQLTWARHGESGSMAVFHQTQGPSYWESKRLEFVAARLGAELRNASLRMFGLRVEDEGNYTCLFVTFPQGSRSVDIWLRVLAKPQNTAEVQKVQLTGEPVPMARCVSTGGRPPAQITWHSDLGGMPNTSQVPGFLSGTVTVTSLWILVPSSQVDGKNVTCKVEHESFEKPQLLTVNLTVYYPPEVSISGYDNNWYLGQNEATLTCDARSNPEPTGYNWSTTMGPLPPFAVAQGAQLLIRPVDKPINTTLICNVTNALGARQAELTVQVKEGPPSEHSGISRNAIIFLVLGILVFLILLGIGIYFYWSKCSREVLWHCHLCPSSTEHASASANGHVSYSAVSRENSSSQDPQTEGTR [chain 2 S67W] | ~0.82
6 | chain 2 WPPPGTGDVVVQAPTQVPGFLGDSVTLPCYLQVPNMEVTHVSQLEWARHGESGSMAVFHQTQGPSYSESKRLEFVAARLGAELRNASLRMFGLRVEDEGNYTCLFVTFPQGSRSVDIWLRVLAKPQNTAEVQKVQLTGEPVPMARCVSTGGRPPAQITWHSDLGGMPNTSQVPGFLSGTVTVTSLWILVPSSQVDGKNVTCKVEHESFEKPQLLTVNLTVYYPPEVSISGYDNNWYLGQNEATLTCDARSNPEPTGYNWSTTMGPLPPFAVAQGAQLLIRPVDKPINTTLICNVTNALGARQAELTVQVKEGPPSEHSGISRNAIIFLVLGILVFLILLGIGIYFYWSKCSREVLWHCHLCPSSTEHASASANGHVSYSAVSRENSSSQDPQTEGTR [chain 2 T45E] | ~0.1
7 | chain 2 WPPPGTGDVVVQAPTQVPGFLGDSVTLPCYLQVPNMEVTHVSQLTWARHGERGSMAVFHQTQGPSYSESKRLEFVAARLGAELRNASLRMFGLRVEDEGNYTCLFVTFPQGSRSVDIWLRVLAKPQNTAEVQKVQLTGEPVPMARCVSTGGRPPAQITWHSDLGGMPNTSQVPGFLSGTVTVTSLWILVPSSQVDGKNVTCKVEHESFEKPQLLTVNLTVYYPPEVSISGYDNNWYLGQNEATLTCDARSNPEPTGYNWSTTMGPLPPFAVAQGAQLLIRPVDKPINTTLICNVTNALGARQAELTVQVKEGPPSEHSGISRNAIIFLVLGILVFLILLGIGIYFYWSKCSREVLWHCHLCPSSTEHASASANGHVSYSAVSRENSSSQDPQTEGTR [chain 2 S52R] | ~1.1
8 | chain 2 WPPPGTGDVVVQAPTQVPGFLGDSVTLPCYLQVPNMEVTHVSQLTWARHGEWGSMAVFHQTQGPSYSESKRLEFVAARLGAELRNASLRMFGLRVEDEGNYTCLFVTFPQGSRSVDIWLRVLAKPQNTAEVQKVQLTGEPVPMARCVSTGGRPPAQITWHSDLGGMPNTSQVPGFLSGTVTVTSLWILVPSSQVDGKNVTCKVEHESFEKPQLLTVNLTVYYPPEVSISGYDNNWYLGQNEATLTCDARSNPEPTGYNWSTTMGPLPPFAVAQGAQLLIRPVDKPINTTLICNVTNALGARQAELTVQVKEGPPSEHSGISRNAIIFLVLGILVFLILLGIGIYFYWSKCSREVLWHCHLCPSSTEHASASANGHVSYSAVSRENSSSQDPQTEGTR [chain 2 S52W] | ~1.2
9 | chain 2 WPPPGTGDVVVQAPTQVPGFLGDSVTLPCYLQVPNMEVTHVSQLTWARHGESGSMAVFHQTQGPSYSESKRLEFVAARLGAELRNASLRMFGLRVEDEGNYTCLFVTFPQGRRSVDIWLRVLAKPQNTAEVQKVQLTGEPVPMARCVSTGGRPPAQITWHSDLGGMPNTSQVPGFLSGTVTVTSLWILVPSSQVDGKNVTCKVEHESFEKPQLLTVNLTVYYPPEVSISGYDNNWYLGQNEATLTCDARSNPEPTGYNWSTTMGPLPPFAVAQGAQLLIRPVDKPINTTLICNVTNALGARQAELTVQVKEGPPSEHSGISRNAIIFLVLGILVFLILLGIGIYFYWSKCSREVLWHCHLCPSSTEHASASANGHVSYSAVSRENSSSQDPQTEGTR [chain 2 S112R] | ~1
10 | chain 2 WPPPGTGDVVVQAPTQVPGFLGDSVTLPCYLQVPNMEVTHVSQLTWARHGESGSMAVFHQTQGPSYSESKRLEFVAARLGAELRNASLRMFGLRVEDEGNYTCLFVTFPQGQRSVDIWLRVLAKPQNTAEVQKVQLTGEPVPMARCVSTGGRPPAQITWHSDLGGMPNTSQVPGFLSGTVTVTSLWILVPSSQVDGKNVTCKVEHESFEKPQLLTVNLTVYYPPEVSISGYDNNWYLGQNEATLTCDARSNPEPTGYNWSTTMGPLPPFAVAQGAQLLIRPVDKPINTTLICNVTNALGARQAELTVQVKEGPPSEHSGISRNAIIFLVLGILVFLILLGIGIYFYWSKCSREVLWHCHLCPSSTEHASASANGHVSYSAVSRENSSSQDPQTEGTR [chain 2 S112Q] | ~1.4

Variants of: B1
Assay: flow cytometry on cells; 120 nM hTIGIT-Fc; CHOK1 cells overexpressing hPVR; parent: 3.2e+03; read off a plot

Row | Variant | response
11 | chain 2 WPPPGTGDVVVQAPTQVPGFLGDSVTLPCYLQVPNMEVTHVSQLTWARHGESGSMAVFHQTQGPSYSESKRLEFVAARLGAELRNASLRMFGLRVEDEGNYTCLFVTFPQVSRSVDIWLRVLAKPQNTAEVQKVQLTGEPVPMARCVSTGGRPPAQITWHSDLGGMPNTSQVPGFLSGTVTVTSLWILVPSSQVDGKNVTCKVEHESFEKPQLLTVNLTVYYPPEVSISGYDNNWYLGQNEATLTCDARSNPEPTGYNWSTTMGPLPPFAVAQGAQLLIRPVDKPINTTLICNVTNALGARQAELTVQVKEGPPSEHSGISRNAIIFLVLGILVFLILLGIGIYFYWSKCSREVLWHCHLCPSSTEHASASANGHVSYSAVSRENSSSQDPQTEGTR [chain 2 G111V] | ~4900 MFI
12 | chain 2 WPPPGTGDVVVQAPTQVPGFLGDSVTLPCYLQVPNMEVTHVSQLTWARHGESGSMAVFHQTQGPSYSESKRLEFVAARLGAELRNASLRMFGLRVEDEGNYTCLFVTFPQGQRSVDIWLRVLAKPQNTAEVQKVQLTGEPVPMARCVSTGGRPPAQITWHSDLGGMPNTSQVPGFLSGTVTVTSLWILVPSSQVDGKNVTCKVEHESFEKPQLLTVNLTVYYPPEVSISGYDNNWYLGQNEATLTCDARSNPEPTGYNWSTTMGPLPPFAVAQGAQLLIRPVDKPINTTLICNVTNALGARQAELTVQVKEGPPSEHSGISRNAIIFLVLGILVFLILLGIGIYFYWSKCSREVLWHCHLCPSSTEHASASANGHVSYSAVSRENSSSQDPQTEGTR [chain 2 S112Q] | ~4400 MFI

Variants of: B1
Assay: as above
Remark: another data set of the same source

Row | Variant | response
13 | chain 2 WPPPGTGDVVVQAPTQVPGFLGDSVTLPCYLQVPNMEVTHVSQLTWARHGESGSMAVFHQTQGPSYSESKRLEFVAARLGAELRNASLRMFGLRVEDEGNYTCLFVTFPQWSRSVDIWLRVLAKPQNTAEVQKVQLTGEPVPMARCVSTGGRPPAQITWHSDLGGMPNTSQVPGFLSGTVTVTSLWILVPSSQVDGKNVTCKVEHESFEKPQLLTVNLTVYYPPEVSISGYDNNWYLGQNEATLTCDARSNPEPTGYNWSTTMGPLPPFAVAQGAQLLIRPVDKPINTTLICNVTNALGARQAELTVQVKEGPPSEHSGISRNAIIFLVLGILVFLILLGIGIYFYWSKCSREVLWHCHLCPSSTEHASASANGHVSYSAVSRENSSSQDPQTEGTR [chain 2 G111W] | ~1700 MFI
14 | chain 2 WPPPGTGDVVVQAPTQVPGFLGDSVTLPCYLQVPNMEVTHVSQLTWARHGESGSMAVFHQTQGPSYWESKRLEFVAARLGAELRNASLRMFGLRVEDEGNYTCLFVTFPQGSRSVDIWLRVLAKPQNTAEVQKVQLTGEPVPMARCVSTGGRPPAQITWHSDLGGMPNTSQVPGFLSGTVTVTSLWILVPSSQVDGKNVTCKVEHESFEKPQLLTVNLTVYYPPEVSISGYDNNWYLGQNEATLTCDARSNPEPTGYNWSTTMGPLPPFAVAQGAQLLIRPVDKPINTTLICNVTNALGARQAELTVQVKEGPPSEHSGISRNAIIFLVLGILVFLILLGIGIYFYWSKCSREVLWHCHLCPSSTEHASASANGHVSYSAVSRENSSSQDPQTEGTR [chain 2 S67W] | ~2600 MFI
15 | chain 2 WPPPGTGDVVVQAPTQVPGFLGDSVTLPCYLQVPNMEVTHVSQLEWARHGESGSMAVFHQTQGPSYSESKRLEFVAARLGAELRNASLRMFGLRVEDEGNYTCLFVTFPQGSRSVDIWLRVLAKPQNTAEVQKVQLTGEPVPMARCVSTGGRPPAQITWHSDLGGMPNTSQVPGFLSGTVTVTSLWILVPSSQVDGKNVTCKVEHESFEKPQLLTVNLTVYYPPEVSISGYDNNWYLGQNEATLTCDARSNPEPTGYNWSTTMGPLPPFAVAQGAQLLIRPVDKPINTTLICNVTNALGARQAELTVQVKEGPPSEHSGISRNAIIFLVLGILVFLILLGIGIYFYWSKCSREVLWHCHLCPSSTEHASASANGHVSYSAVSRENSSSQDPQTEGTR [chain 2 T45E] | ~100 MFI
